Assay results as given in the supplement of paper PMC10567573.

B1: CLCN6 (parent)
chain: MAGCRGSLCCCCRWCCCCGERETR

Variants of: B1
Assay: protein stability index of a GFP-peptide fusion (GPS, HEK-293T) (PSI 1-6); higher = more stable
Conditions: c terminus: a fixed tail appended
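Further: lentivirally expressed fusions sorted by FACS into six bins by GFP to DsRed ratio, PSI derived from sequencing read proportions per bin multiplied by bin number.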

Protein stability index: each site, then its substitutions
C17: W 2.41; E 1.8; R 2.67; S 1.45; A 2.48; Y 1.97; P 1.8; T 1.27
L8: K 1.53; S 1.22; V 2.21; F 1.1; Q 1.29; I 1.32; E 1.83; T 1.42; R 2.16; C 1.54
M1: L 1.39; E 1.22; P 2.12; K 2.14
C9: T 2.16; W 2.65; R 1.28; K 1.77; P 1.69; Q 2.64; N 1.67
C16: E 2.22; T 1.86; R 1.28; S 1; P 1.33; A 2.12
R5: Q 2.33; P 1.29; Y 3.45; G 1.49; F 2.41; E 1.34; D 1.38
R24: D 2.79; F 1.79; T 2.71; E 2.95
S7: P 2.19; Y 1.43; T 1.77; N 1.09; H 1.89; W 2.47; L 1.9; R 1.37; Q 1.49
W14: M 1.14; Y 1.55; E 2.08; L 3.15; C 1.53; Q 2.47; F 1.95; T 3.2; K 2.32; P 2.33
C18: A 1.26; K 1.85; D 2.77; L 2.49; S 2.47; V 1.3; N 1.49; G 1.79
R13: I 1.3; Y 2.57; L 2.4; V 1.78; Q 1.79; F 2.78; P 1.76; C 2.02; W 3.64
C11: R 1.97; I 1.68; H 1.3; W 2.26; E 2.27; Y 2; V 1.41
C10: F 1.36; D 1.24; P 1.45; T 3.66; K 2.07
A2: G 2.1; K 2.68; M 1.73; V 1.46; H 2.81; F 2.2; Q 1.74
G19: H 1.15; Y 2.41; E 1.86; K 1.8; W 1.66
C4: E 2.58; F 2.4; W 1.79; A 1.84; S 1.69; G 1.45; L 2.74
G6: T 1.59; R 2.52; A 1.83; E 2.38; I 2.06; P 1.58; Q 2.28; D 2.36; Y 1.89
T23: R 1.77; N 2.15; W 2.78; G 1.78
G3: E 2.09; W 1.9; Y 2.37; K 1.52; I 1.44; D 1.8
R21: K 1.79; A 2.37; Y 2.8; D 2.82; V 1.66; C 2.56; F 1.06; T 2.77
C15: L 2.74; V 2.08; H 2.6; G 2.04; F 2.99; M 1.65; Q 2.39
E22: N 1.48; S 1.65; P 2.12; Q 1.83; T 2.09; M 1.65; D 1.92; F 2.16
C12: F 3.72; G 3.2; M 2.19; L 2.86; P 1.66
E20: A 1.96; K 2.22; F 1.55; R 2.33; S 2.25; V 1.93; D 2.27
